According to patent publication US20070105925A1:

Tests used:
[1] = molecular target: human recombinant (hr) ACE2 (human) (UniProt Q9BYF1); test: cell-based or functional assay
[2] = test system: T1, 7-methoxycoumarin-Tyr-Val-Ala-Pro-(2,4-dinitrophenyl)Lys
T1 sequence: YVAPK

Chain of human recombinant (hr) ACE2 (human) (Q9BYF1 18-740 limits assumed): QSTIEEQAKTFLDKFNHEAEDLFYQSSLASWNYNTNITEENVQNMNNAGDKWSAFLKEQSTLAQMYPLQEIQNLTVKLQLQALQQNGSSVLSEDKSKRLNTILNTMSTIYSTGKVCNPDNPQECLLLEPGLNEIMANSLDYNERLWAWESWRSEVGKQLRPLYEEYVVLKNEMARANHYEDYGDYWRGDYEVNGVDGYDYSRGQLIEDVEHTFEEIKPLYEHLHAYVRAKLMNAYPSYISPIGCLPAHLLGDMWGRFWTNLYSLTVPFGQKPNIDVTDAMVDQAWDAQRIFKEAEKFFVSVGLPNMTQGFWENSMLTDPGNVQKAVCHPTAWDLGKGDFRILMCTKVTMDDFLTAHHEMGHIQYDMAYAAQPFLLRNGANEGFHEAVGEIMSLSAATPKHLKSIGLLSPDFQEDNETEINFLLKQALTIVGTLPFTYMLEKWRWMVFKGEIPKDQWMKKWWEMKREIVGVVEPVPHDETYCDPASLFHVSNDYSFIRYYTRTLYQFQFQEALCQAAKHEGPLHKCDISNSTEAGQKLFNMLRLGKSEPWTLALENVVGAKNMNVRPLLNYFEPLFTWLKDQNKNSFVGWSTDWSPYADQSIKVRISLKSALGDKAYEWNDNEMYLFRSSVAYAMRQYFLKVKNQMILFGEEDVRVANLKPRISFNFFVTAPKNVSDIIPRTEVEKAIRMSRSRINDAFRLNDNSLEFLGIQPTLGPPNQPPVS

Substance	quenching of the fluorescence signal from cleavage of 7-Mca-YVADAPK(Dnp) by hrACE2 (enzyme inhibition) [1]	fluorescence from cleavage of the substrate, hACE2 spiked into kidney extract of an ACE2-knockout mouse [2]
DX600 (peptide)	100 nmol/L	
human recombinant (hr) ACE2		the fluorescence signal was recovered in a dose dependent manner, with a linear relationship (r=0.990, p<0.001) in the range of 0.4 to 50 ng ACE2 protein/well
